Measured values as given in patent publication US6479638.

Columns and labels:
[1] = target: DNAX Leukocyte Associated Immunoglobulin-like Receptor (DLAIR-1) (human) (UniProt Q6GTX8); experiment: flow cytometry (FACScan) on Peer T cell tumor cells, PE goat-anti-mouse-IgG second step
[2] = target: DNAX Leukocyte Associated Immunoglobulin-like Receptor (DLAIR-1) (human) (UniProt Q6GTX8); experiment: flow cytometry (FACScan) on CEM T cell tumor cells, PE goat-anti-mouse-IgG second step
[3] = target: DNAX Leukocyte Associated Immunoglobulin-like Receptor (DLAIR-1) (human) (UniProt Q6GTX8); experiment: flow cytometry (FACScan) on HUT78 T cell tumor cells, PE goat-anti-mouse-IgG second step
[4] = target: DNAX Leukocyte Associated Immunoglobulin-like Receptor (DLAIR-1) (human) (UniProt Q6GTX8); experiment: flow cytometry (FACScan) on U937 myeloid tumor cells, PE goat-anti-mouse-IgG second step
[5] = target: DNAX Leukocyte Associated Immunoglobulin-like Receptor (DLAIR-1) (human) (UniProt Q6GTX8); experiment: flow cytometry (FACScan) on Molt4 T cell tumor cells, PE goat-anti-mouse-IgG second step
[6] = target: DNAX Leukocyte Associated Immunoglobulin-like Receptor (DLAIR-1) (human) (UniProt Q6GTX8); experiment: flow cytometry (FACScan) on Jurkat T cell tumor cells, PE goat-anti-mouse-IgG second step
[7] = target: DNAX Leukocyte Associated Immunoglobulin-like Receptor (DLAIR-1) (human) (UniProt Q6GTX8); experiment: flow cytometry (FACScan) on HL60 promyeloid tumor cells, PE goat-anti-mouse-IgG second step

Row | mean fluorescence intensity [1] | mean fluorescence intensity [2] | mean fluorescence intensity [3] | mean fluorescence intensity [4] | mean fluorescence intensity [5] | mean fluorescence intensity [6] | mean fluorescence intensity [7] | Substance
1 | 29.1 | 92.7 | 25.8 | 49.5 | 30.7 | 47.1 | 46.9 | DX26 monoclonal antibody
2 | < 5 | < 5 |  | < 5 | < 5 | < 5 | < 5 | control IgG1 (antibody)
